Source: publication PMC10786891, “Massively parallel profiling of RNA-targeting CRISPR-Cas13d”

T1: EsCas13d, nuclease-dead (Eubacterium siraeum, UniProt B0MS50, R295A;H300A;R849A;H854A)
T1 sequence: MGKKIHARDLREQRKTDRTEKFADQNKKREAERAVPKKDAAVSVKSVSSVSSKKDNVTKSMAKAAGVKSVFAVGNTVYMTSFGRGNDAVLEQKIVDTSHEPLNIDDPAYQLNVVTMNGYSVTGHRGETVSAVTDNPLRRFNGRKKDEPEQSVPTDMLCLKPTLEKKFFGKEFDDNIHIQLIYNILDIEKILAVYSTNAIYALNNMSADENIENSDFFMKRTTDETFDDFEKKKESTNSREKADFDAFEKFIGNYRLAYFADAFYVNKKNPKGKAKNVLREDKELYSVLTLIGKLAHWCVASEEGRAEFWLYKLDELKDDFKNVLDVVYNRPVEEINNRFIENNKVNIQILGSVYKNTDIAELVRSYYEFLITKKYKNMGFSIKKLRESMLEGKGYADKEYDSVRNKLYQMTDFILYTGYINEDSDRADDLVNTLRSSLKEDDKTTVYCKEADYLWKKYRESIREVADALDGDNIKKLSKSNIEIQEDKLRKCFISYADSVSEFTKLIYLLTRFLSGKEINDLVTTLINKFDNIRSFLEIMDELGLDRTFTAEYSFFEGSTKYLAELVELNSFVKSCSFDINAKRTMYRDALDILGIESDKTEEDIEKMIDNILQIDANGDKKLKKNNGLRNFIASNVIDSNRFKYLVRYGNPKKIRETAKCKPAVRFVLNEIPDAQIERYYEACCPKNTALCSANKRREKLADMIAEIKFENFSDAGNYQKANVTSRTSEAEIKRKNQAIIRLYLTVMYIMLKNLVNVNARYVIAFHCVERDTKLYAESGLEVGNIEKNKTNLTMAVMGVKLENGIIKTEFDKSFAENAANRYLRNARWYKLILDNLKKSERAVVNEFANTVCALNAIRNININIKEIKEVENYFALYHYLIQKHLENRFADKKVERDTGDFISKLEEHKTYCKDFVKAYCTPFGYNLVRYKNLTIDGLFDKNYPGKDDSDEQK


Target: T1, EsCas13d, nuclease-dead
Assay: crRNA (strand 1, pre-loaded); Mg2+; 40 mM Tris-HCl pH 7.5, 150 mM NaCl, 6 mM MgCl2, 1 mM DTT, 0.1% Tween-20, 0.2 mg/ml BSA; 25 C; 10 min per concentration, then washed
Settings: tags: His6-TwinStrep-SUMO cleaved; N-terminal SNAP kept (SNAP-Surface 488); label: 3' end held by stalled T7 RNA polymerase

Row | Binder | Kd [nM]
1 | target 1 MT 5'PFS GCG 3'PFS AUC (mixed) RNA 1: CACCCGUGCAAAAAUGCAGGGGUCUAAAACUGAGCGGAUAACCUCUCUAUGG RNA 2: GGGAAUGGAUCCACAUCUACGAAUUCGCGCCAUAGAGAGGUUAUCCGCUCAAUCAGAUCGGAAGAGCACACGU | 22 ± 6
2 | target 1 complement block 10-13 (mixed) RNA 1: CACCCGUGCAAAAAUGCAGGGGUCUAAAACUGAGCGGAUAACCUCUCUAUGG RNA 2: GGGAAUGGAUCCACAUCUACGAAUUCGUACCAUAGAGACCAAAUCCGCUCACCGAGAUCGGAAGAGCACACGU | 99 ± 30
3 | target 1 MT 5'PFS GUC 3'PFS AAU (mixed) RNA 1: CACCCGUGCAAAAAUGCAGGGGUCUAAAACUGAGCGGAUAACCUCUCUAUGG RNA 2: GGGAAUGGAUCCACAUCUACGAAUUCGUCCCAUAGAGAGGUUAUCCGCUCAAAUAGAUCGGAAGAGCACACGU | 25.5 ± 6.5
4 | target 1 G13A,C22A (mixed) RNA 1: CACCCGUGCAAAAAUGCAGGGGUCUAAAACUGAGCGGAUAACCUCUCUAUGG RNA 2: GGGAAUGGAUCCACAUCUACGAAUUCGUAACAUAGAGAAGUUAUCCGCUCACCGAGAUCGGAAGAGCACACGU | 9.6 ± 0.5
5 | target 1 MT 5'PFS UCG 3'PFS CUG (mixed) RNA 1: CACCCGUGCAAAAAUGCAGGGGUCUAAAACUGAGCGGAUAACCUCUCUAUGG RNA 2: GGGAAUGGAUCCACAUCUACGAAUUCUCGCCAUAGAGAGGUUAUCCGCUCACUGAGAUCGGAAGAGCACACGU | 57.5 ± 23
6 | target 1 MT 5'PFS UAU 3'PFS AUC (mixed) RNA 1: CACCCGUGCAAAAAUGCAGGGGUCUAAAACUGAGCGGAUAACCUCUCUAUGG RNA 2: GGGAAUGGAUCCACAUCUACGAAUUCUAUCCAUAGAGAGGUUAUCCGCUCAAUCAGAUCGGAAGAGCACACGU | ~65
7 | target 1 MT 5'PFS GGG 3'PFS CUG (mixed) RNA 1: CACCCGUGCAAAAAUGCAGGGGUCUAAAACUGAGCGGAUAACCUCUCUAUGG RNA 2: GGGAAUGGAUCCACAUCUACGAAUUCGGGCCAUAGAGAGGUUAUCCGCUCACUGAGAUCGGAAGAGCACACGU | 14.7 ± 2.1
8 | target 1 MT 5'PFS GUC 3'PFS AAC (mixed) RNA 1: CACCCGUGCAAAAAUGCAGGGGUCUAAAACUGAGCGGAUAACCUCUCUAUGG RNA 2: GGGAAUGGAUCCACAUCUACGAAUUCGUCCCAUAGAGAGGUUAUCCGCUCAAACAGAUCGGAAGAGCACACGU | 36.5 ± 17.5
9 | target 1 MT 5'PFS ACG 3'PFS CGA (mixed) RNA 1: CACCCGUGCAAAAAUGCAGGGGUCUAAAACUGAGCGGAUAACCUCUCUAUGG RNA 2: GGGAAUGGAUCCACAUCUACGAAUUCACGCCAUAGAGAGGUUAUCCGCUCACGAAGAUCGGAAGAGCACACGU | 28 ± 12
10 | target 1 MT 5'PFS UCG 3'PFS UUA (mixed) RNA 1: CACCCGUGCAAAAAUGCAGGGGUCUAAAACUGAGCGGAUAACCUCUCUAUGG RNA 2: GGGAAUGGAUCCACAUCUACGAAUUCUCGCCAUAGAGAGGUUAUCCGCUCAUUAAGAUCGGAAGAGCACACGU | 31.5 ± 7.5
11 | target 1 MT 5'PFS CAC 3'PFS AUC (mixed) RNA 1: CACCCGUGCAAAAAUGCAGGGGUCUAAAACUGAGCGGAUAACCUCUCUAUGG RNA 2: GGGAAUGGAUCCACAUCUACGAAUUCCACCCAUAGAGAGGUUAUCCGCUCAAUCAGAUCGGAAGAGCACACGU | ~28.5
12 | target 1 MT 5'PFS UCG 3'PFS CUC (mixed) RNA 1: CACCCGUGCAAAAAUGCAGGGGUCUAAAACUGAGCGGAUAACCUCUCUAUGG RNA 2: GGGAAUGGAUCCACAUCUACGAAUUCUCGCCAUAGAGAGGUUAUCCGCUCACUCAGAUCGGAAGAGCACACGU | 45.5 ± 20
13 | target 1 MT 5'PFS UAU 3'PFS AUA (mixed) RNA 1: CACCCGUGCAAAAAUGCAGGGGUCUAAAACUGAGCGGAUAACCUCUCUAUGG RNA 2: GGGAAUGGAUCCACAUCUACGAAUUCUAUCCAUAGAGAGGUUAUCCGCUCAAUAAGAUCGGAAGAGCACACGU | 43 ± 15.5
14 | target 1 insC 3' of 19,insA 3' of 12 (mixed) RNA 1: CACCCGUGCAAAAAUGCAGGGGUCUAAAACUGAGCGGAUAACCUCUCUAUGG RNA 2: GGGAAUGGAUCCACAUCUACGAAUUCGUACCAUCAGAGAGGAUUAUCCGCUCACCGAGAUCGGAAGAGCACACGU | 69 ± 9
15 | target 1 MT 5'PFS GCG 3'PFS AUG (mixed) RNA 1: CACCCGUGCAAAAAUGCAGGGGUCUAAAACUGAGCGGAUAACCUCUCUAUGG RNA 2: GGGAAUGGAUCCACAUCUACGAAUUCGCGCCAUAGAGAGGUUAUCCGCUCAAUGAGAUCGGAAGAGCACACGU | 30.5 ± 8
16 | target 1 MT 5'PFS UUU 3'PFS UCC (mixed) RNA 1: CACCCGUGCAAAAAUGCAGGGGUCUAAAACUGAGCGGAUAACCUCUCUAUGG RNA 2: GGGAAUGGAUCCACAUCUACGAAUUCUUUCCAUAGAGAGGUUAUCCGCUCAUCCAGAUCGGAAGAGCACACGU | 90 ± 45
17 | target 1 MT 5'PFS GGG 3'PFS CUA (mixed) RNA 1: CACCCGUGCAAAAAUGCAGGGGUCUAAAACUGAGCGGAUAACCUCUCUAUGG RNA 2: GGGAAUGGAUCCACAUCUACGAAUUCGGGCCAUAGAGAGGUUAUCCGCUCACUAAGAUCGGAAGAGCACACGU | 25.1 ± 5.2
18 | target 1 MT 5'PFS CAC 3'PFS AUA (mixed) RNA 1: CACCCGUGCAAAAAUGCAGGGGUCUAAAACUGAGCGGAUAACCUCUCUAUGG RNA 2: GGGAAUGGAUCCACAUCUACGAAUUCCACCCAUAGAGAGGUUAUCCGCUCAAUAAGAUCGGAAGAGCACACGU | ~17
19 | target 1 MT 5'PFS AAC 3'PFS CGG (mixed) RNA 1: CACCCGUGCAAAAAUGCAGGGGUCUAAAACUGAGCGGAUAACCUCUCUAUGG RNA 2: GGGAAUGGAUCCACAUCUACGAAUUCAACCCAUAGAGAGGUUAUCCGCUCACGGAGAUCGGAAGAGCACACGU | 31 ± 7
20 | target 1 MT 5'PFS CUG 3'PFS CGG (mixed) RNA 1: CACCCGUGCAAAAAUGCAGGGGUCUAAAACUGAGCGGAUAACCUCUCUAUGG RNA 2: GGGAAUGGAUCCACAUCUACGAAUUCCUGCCAUAGAGAGGUUAUCCGCUCACGGAGAUCGGAAGAGCACACGU | 18.6 ± 3.55
21 | target 1 MT 5'PFS CUG 3'PFS CGU (mixed) RNA 1: CACCCGUGCAAAAAUGCAGGGGUCUAAAACUGAGCGGAUAACCUCUCUAUGG RNA 2: GGGAAUGGAUCCACAUCUACGAAUUCCUGCCAUAGAGAGGUUAUCCGCUCACGUAGAUCGGAAGAGCACACGU | 21 ± 6.5
22 | target 1 MT 5'PFS GAG 3'PFS CCG (mixed) RNA 1: CACCCGUGCAAAAAUGCAGGGGUCUAAAACUGAGCGGAUAACCUCUCUAUGG RNA 2: GGGAAUGGAUCCACAUCUACGAAUUCGAGCCAUAGAGAGGUUAUCCGCUCACCGAGAUCGGAAGAGCACACGU | ~25
23 | target 1 MT 5'PFS UCG 3'PFS UUG (mixed) RNA 1: CACCCGUGCAAAAAUGCAGGGGUCUAAAACUGAGCGGAUAACCUCUCUAUGG RNA 2: GGGAAUGGAUCCACAUCUACGAAUUCUCGCCAUAGAGAGGUUAUCCGCUCAUUGAGAUCGGAAGAGCACACGU | 43 ± 8
24 | target 1 MT 5'PFS GGG 3'PFS CUC (mixed) RNA 1: CACCCGUGCAAAAAUGCAGGGGUCUAAAACUGAGCGGAUAACCUCUCUAUGG RNA 2: GGGAAUGGAUCCACAUCUACGAAUUCGGGCCAUAGAGAGGUUAUCCGCUCACUCAGAUCGGAAGAGCACACGU | 23 ± 7
25 | target 1 MT 5'PFS CUG 3'PFS AAA (mixed) RNA 1: CACCCGUGCAAAAAUGCAGGGGUCUAAAACUGAGCGGAUAACCUCUCUAUGG RNA 2: GGGAAUGGAUCCACAUCUACGAAUUCCUGCCAUAGAGAGGUUAUCCGCUCAAAAAGAUCGGAAGAGCACACGU | 10.6 ± 2.7
26 | target 1 MT 5'PFS AAG 3'PFS UAU (mixed) RNA 1: CACCCGUGCAAAAAUGCAGGGGUCUAAAACUGAGCGGAUAACCUCUCUAUGG RNA 2: GGGAAUGGAUCCACAUCUACGAAUUCAAGCCAUAGAGAGGUUAUCCGCUCAUAUAGAUCGGAAGAGCACACGU | 18.5 ± 5
27 | target 1 MT 5'PFS ACU 3'PFS UAU (mixed) RNA 1: CACCCGUGCAAAAAUGCAGGGGUCUAAAACUGAGCGGAUAACCUCUCUAUGG RNA 2: GGGAAUGGAUCCACAUCUACGAAUUCACUCCAUAGAGAGGUUAUCCGCUCAUAUAGAUCGGAAGAGCACACGU | ~72.5
28 | target 1 MT 5'PFS UCG 3'PFS UUC (mixed) RNA 1: CACCCGUGCAAAAAUGCAGGGGUCUAAAACUGAGCGGAUAACCUCUCUAUGG RNA 2: GGGAAUGGAUCCACAUCUACGAAUUCUCGCCAUAGAGAGGUUAUCCGCUCAUUCAGAUCGGAAGAGCACACGU | 37 ± 12.5
